Assay results reported in article PMC12630144.

Molecular target: WRKY50 (Arabidopsis thaliana, UniProt Q8VWQ5 1-173)
Experiment: EMSA

WRKY50, sequence (Q8VWQ5 whole entry): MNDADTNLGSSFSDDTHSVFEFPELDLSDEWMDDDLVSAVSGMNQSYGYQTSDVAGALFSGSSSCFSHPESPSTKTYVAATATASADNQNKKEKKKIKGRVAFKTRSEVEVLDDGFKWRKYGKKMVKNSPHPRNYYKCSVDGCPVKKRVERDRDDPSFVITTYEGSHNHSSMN

| Binder | binding result |
| --- | --- |
| WK-box consensus probe (dsDNA) DNA 1: ATCGTCTAGATCGATTTTTCCACACGATGCTAGTCGTCA DNA 2: TGACGACTAGCATCGTGTGGAAAAATCGATCTAGACGAT | binds |
| WT-box consensus probe (dsDNA) DNA 1: ATCGTCTAGATCGAAAAAGTCAACCGATGCTAGTCGTCA DNA 2: TGACGACTAGCATCGGTTGACTTTTTCGATCTAGACGAT | binds |
